# Laboratory results from patent US5888732.
# Tests used:
# [1] = biological target: Lambda integrase (Int) + excisionase (Xis) + IHF (UniProt P03700+P03699+P0A6X7+P0A6Y1); assay: cell_activity
# [2] = biological target: Cre recombinase (bacteriophage P1) (UniProt P06956); assay: cell_activity; details: 140 without Cre
# [3] = tested on: Lambda integrase (Int) + IHF; assay: cleavage_in_vitro; details: agarose gel; 50 mM Tris pH 7.8, 70 mM KCl, 5 mM spermidine, 25 C 45 min
# UniProt P03700, sequence (P03700 whole entry, chain 1 of 4): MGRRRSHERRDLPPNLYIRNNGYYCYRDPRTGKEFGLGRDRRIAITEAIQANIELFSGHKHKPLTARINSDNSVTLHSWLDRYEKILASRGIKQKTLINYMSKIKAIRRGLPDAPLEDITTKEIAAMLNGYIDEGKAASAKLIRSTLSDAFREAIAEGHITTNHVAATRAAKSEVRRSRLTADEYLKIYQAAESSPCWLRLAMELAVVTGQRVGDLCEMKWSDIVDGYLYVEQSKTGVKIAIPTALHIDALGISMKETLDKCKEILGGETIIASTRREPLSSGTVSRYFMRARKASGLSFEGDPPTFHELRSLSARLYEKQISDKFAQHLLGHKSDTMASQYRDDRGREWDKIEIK
# UniProt P03700, sequence (P03699 whole entry, chain 2 of 4): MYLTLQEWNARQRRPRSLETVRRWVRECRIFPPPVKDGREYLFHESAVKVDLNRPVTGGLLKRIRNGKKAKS
# UniProt P03700, sequence (P0A6X7 2-99, chain 3 of 4): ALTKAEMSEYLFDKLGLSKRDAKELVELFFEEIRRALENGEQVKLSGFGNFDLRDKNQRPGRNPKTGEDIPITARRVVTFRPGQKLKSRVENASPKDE
# UniProt P03700, sequence (P0A6Y1 whole entry, chain 4 of 4): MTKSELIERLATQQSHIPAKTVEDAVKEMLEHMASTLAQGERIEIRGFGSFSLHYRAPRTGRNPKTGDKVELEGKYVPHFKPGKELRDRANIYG
# UniProt P06956, sequence (P06956 whole entry): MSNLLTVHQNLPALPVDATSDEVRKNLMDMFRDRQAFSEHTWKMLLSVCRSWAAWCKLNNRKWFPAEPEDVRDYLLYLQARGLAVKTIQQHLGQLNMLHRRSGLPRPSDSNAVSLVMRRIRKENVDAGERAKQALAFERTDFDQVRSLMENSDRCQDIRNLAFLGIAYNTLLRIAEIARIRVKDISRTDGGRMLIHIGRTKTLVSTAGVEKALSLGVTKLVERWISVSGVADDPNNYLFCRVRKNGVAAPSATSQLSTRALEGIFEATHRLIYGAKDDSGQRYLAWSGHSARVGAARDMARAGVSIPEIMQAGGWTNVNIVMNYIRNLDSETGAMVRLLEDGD
substance,measurement,setting,value
attRwt (lacking P1 and H1; pEZC1301) ; attLwt (pEZC1313),activity (kanamycin resistant colonies),"[1]; in vitro recombination with Cre on loxP as second site, background 1",147
attR1 (pEZC1305) ; attLwt (pEZC1313),activity (kanamycin resistant colonies),"[1]; with Cre/loxP, background 1",4
loxP 511,activity (kanamycin resistant colonies),"[2]; same reaction as loxP, both sites required for product",760
attRwt (lacking P1 and H1; pEZC1301) ; attL1 (pEZC1317),activity (kanamycin resistant colonies),"[1]; with Cre/loxP, background 1",47
attRwt (lacking P1 and H1; pEZC1301) ; attL2 (pEZC1321),activity (kanamycin resistant colonies),"[1]; with Cre/loxP, background 1",0
attB wild type (pEZC705) ; attP wild type (pEZC726),activity (% of total DNA converted to cointegrate),[3],5
attR2 (pEZC1309) ; attLwt (pEZC1313),activity (kanamycin resistant colonies),"[1]; with Cre/loxP, background 9",0
loxP wild type,activity (kanamycin resistant colonies),"[2]; pEZC602 x pEZC629 via loxP and loxP 511, 37 C, 33 mM NaCl",760
